Measurements taken from the supplement of paper PMC9732359.
± gives the uncertainty stated by the source.

Assay: protein stability index of a GFP-peptide fusion (yeast GPS) (PSI 1-4); higher = more stable; sorted into four equal gates, so the index is relative within each strain
Summary of the method: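 Each library plasmid carries Cherry plus GFP with a tiled 17-residue yeast protein peptide fused downstream, and the pooled library was carried in yeast. Mid-log cultures in leucine-free medium were sorted into four equal gates by GFP/Cherry ratio. Reads from Illumina sequencing of PCR-amplified plasmids from each gate were assigned to strains by barcodes. Per peptide, the protein stability index was computed as the summed products of gate read frequency and gate number.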

Row | Sequence | protein stability index (doa10∆) | protein stability index (pdr5∆) | protein stability index (san1∆) | protein stability index (ubr1∆)
1 | HDGGFDLVHIKDSLDNT [RPS4A] | 2.05 ± 0.079 | 2.26 ± 0.06 | 2.73 ± 0.12 | 2.33 ± 0.04
2 | MEQCKQRYQDLSQQQKD [YIL149C/MLP2] | 3.33 ± 0.086 | 3.3 ± 0.074 | 2.95 ± 0.067 | 2.95 ± 0.048
3 | LIIKYQKYWESMRIQIL [GAL11] | 1.49 ± 0.064 | 1.95 ± 0.076 | 1.71 ± 0.087 | 1.65 ± 0.06
4 | TELKKITDKTIKAFMDS [IRR1] | 2.99 ± 0.065 | 2.42 ± 0.054 | 2.46 ± 0.072 | 2.52 ± 0.079
5 | QFQKARNNVMLLIATNL [SRB8] | 1.74 ± 0.11 | 1.81 ± 0.1 | 2.24 ± 0.13 | 1.93 ± 0.071
6 | KSGKFCSHCGCVYVPNF [SNM1] | 2.48 ± 0.068 | 1.79 ± 0.055 | 1.7 ± 0.11 | 1.42 ± 0.062
7 | ETELPTLSLPDSQDYIL [SMC1] | 3.1 ± 0.043 | 3.19 ± 0.054 | 3.11 ± 0.037 | 3.29 ± 0.055
8 | SMDVDDKNSGVKSEVDV [ITC1] | 2.52 ± 0.076 | 1.64 ± 0.039 | 1.78 ± 0.094 | 2.5 ± 0.043
9 | EVTKEEDIIANYASVYP [RRP43] | 2.77 ± 0.07 | 2.95 ± 0.057 | 3.06 ± 0.094 | 3.06 ± 0.055
10 | KQEQEEKIKSKKINRRN [YCG1] | 3.4 ± 0.18 | 2.87 ± 0.17 | 2.75 ± 0.29 | 3.22 ± 0.15
11 | LFSLLELGEQKCQELVT [RRP46] | 1.97 ± 0.061 | 1.8 ± 0.056 | 1.87 ± 0.093 | 2.1 ± 0.058
12 | YGEYPPTKLLVSEVAKI [PRE8] | 2.53 ± 0.084 | 2.81 ± 0.13 | 2.67 ± 0.12 | 2.93 ± 0.078
13 | GGLFGNSAQNNSTTSGG [YGR119C/NUP57] | 3.08 ± 0.069 | 3.36 ± 0.11 | 2.78 ± 0.068 | 3.06 ± 0.096
14 | ESNKRYRFFKKISEDPV [SNF12] | 3.16 ± 0.16 | 2.97 ± 0.16 | 2.99 ± 0.18 | 2.69 ± 0.061
15 | VPVRKFKGNNGVVVLRD [RPN2] | – | 2.88 ± 0.18 | – | –
16 | VNEIMYKCTAAMEKYLL [MTW1] | 2.19 ± 0.046 | 2.44 ± 0.06 | 2.4 ± 0.07 | 2.29 ± 0.056
17 | ELSFYILYSFKLSGKLL [YML103C/NUP188] | 1.47 ± 0.043 | 1.49 ± 0.04 | 1.49 ± 0.081 | 1.74 ± 0.037
18 | ILTEHLGYPPISLVDDI [MTW1] | 2.36 ± 0.054 | 2.17 ± 0.047 | 2.22 ± 0.071 | 2.11 ± 0.042
19 | AELDPSLRTPIAPKITP [SEC65] | 3.06 ± 0.1 | 3.05 ± 0.058 | 3 ± 0.082 | 3.13 ± 0.055
20 | TFEFINIAFDAHMSIGC [YML031W/NDC1] | 1.2 ± 0.074 | 1.38 ± 0.067 | 1.19 ± 0.13 | 1.33 ± 0.062

Row | Sequence | protein stability index (doa10∆) | protein stability index (pdr5∆) | protein stability index (san1∆) | protein stability index (ubr1∆)
21 | NNNDNDANRNANNIVNI [GRR1] | 2.94 ± 0.052 | 3 ± 0.05 | 2.9 ± 0.036 | 3.04 ± 0.045
22 | IDLLTFQYGSRLPTFLK [RPP1] | 1.89 ± 0.064 | 1.84 ± 0.052 | 1.6 ± 0.081 | 1.57 ± 0.047
23 | YIDYSSKRYIPSVNDFV [RRP40] | 2.51 ± 0.048 | 2.83 ± 0.051 | 2.42 ± 0.1 | 2.6 ± 0.078
24 | NLCGDISLEALNFYITN [SIR3] | 2.55 ± 0.064 | 2.73 ± 0.059 | 2.6 ± 0.053 | 2.74 ± 0.032
25 | RERIRKGLQIYQSSVQE [PRP8] | – | – | 1.81 ± 0.24 | –
26 | LRRASATVPSAPYRKQI [YAR002W/NUP60] | 2.72 ± 0.095 | 2.93 ± 0.11 | 2.07 ± 0.13 | 2.64 ± 0.068
27 | LLGKDNEDDALIYGISD [AAR2] | 3.22 ± 0.12 | 3.14 ± 0.14 | 3.11 ± 0.1 | 2.7 ± 0.14
28 | VLRKQKRYTVKKALAKA [RPL14A] | 2.08 ± 0.14 | 2.14 ± 0.1 | – | 1.55 ± 0.19
29 | LNKEKLGPLFKKIVDDT [IRR1] | 2.94 ± 0.099 | 3.12 ± 0.12 | 3.22 ± 0.23 | 2.94 ± 0.076
30 | KSKSSLDGKFSLFHTAV [RPN2] | 2.86 ± 0.096 | 2.8 ± 0.072 | 2.86 ± 0.067 | 2.77 ± 0.067
31 | QFNEFIQIMANIDQEGS [PGD1] | 2.29 ± 0.073 | 2.37 ± 0.067 | 2.33 ± 0.072 | 2.54 ± 0.049
32 | TYQTERFTKFSDTLKEF [YDL116W/NUP84] | 2.38 ± 0.047 | 2.31 ± 0.056 | 1.73 ± 0.12 | 1.97 ± 0.046
33 | LLFINSSKLVDVYTLPS [YML103C/NUP188] | 1.97 ± 0.043 | 2 ± 0.05 | 1.98 ± 0.055 | 2.01 ± 0.054
34 | ILEEKTDLHLPKKEYDD [NSL1] | 1.76 ± 0.057 | 2.39 ± 0.12 | 2.21 ± 0.12 | 2.66 ± 0.061
35 | YGQRAVLKFAAHTGATP [RPS0B] | 2.27 ± 0.055 | 2.88 ± 0.039 | 2.66 ± 0.046 | 2.66 ± 0.041
36 | HMADAKIMPKDILQITK [SIR4] | 2.99 ± 0.072 | 3.29 ± 0.068 | 2.87 ± 0.071 | 2.95 ± 0.063
37 | EGDFLKSIIGKLTAERA [POP1] | 1.63 ± 0.14 | 3.23 ± 0.082 | 2.1 ± 0.11 | 3.03 ± 0.12
38 | SPVRSDSADVPAFSNSN [YMR153W/NUP53] | 3.06 ± 0.096 | 3.07 ± 0.096 | 3.21 ± 0.12 | 2.93 ± 0.057
39 | DQFITSLKCTDPYELKG [ITC1] | 3.02 ± 0.12 | 2.66 ± 0.09 | 2.78 ± 0.088 | 2.95 ± 0.1
